Measured values: the DeepSol protein solubility set

Test: soluble on expression in E. coli; label from the status in PepcDB or PDB records

| Sequence | soluble on expression in E. coli |
| --- | --- |
| MGSDKIHHHHHHMAQHVIEMREITKKFDDFVANDHINLDLRKGEIHALLGENGAGKSTLMNMLAGLLEPTSGSIKINGSAVTIDSPSKSAQLGIGMVHQHFMLVEAFTVTENIILGNEVVKNGILDLKKAGQEIKALSEKYGLAVDPNAKIADISVGAQQRVEILKTLYRGADILIFDEPTAVLTPSEIQELMTIMKSLVKEGKSIILITHKLDEIRSVADRVTVIRRGKSIETVEVSGTTSQDLAEMMVGRSVSFTIEKTPTKPKETILSIKDLVVNENRGIPAIKGLSLEVKAGEIIGIAGIDGNGQSELVQAITGLRKIKSGHLTIKGQDVTKLSTRKITELSVGHVPEDRHRDGLILELTMAENLALQTYYKAPLSHNGVLNYSKINEHGRHLMQEFDVRGANELIPAKGFSGGNQQKAIIAREVDRDPDLLIVSQPTRGLDVGAIEYIHKRLIAERDEGKAVLLVSFELDEILNLSDRIAVIHDGQIQGIVTPETTNKQELGILMAGGSIEREEINV | not soluble |
| GPGSMNIRQRKSERHKEVLRKLSQNGGNKNCFDCGMRGPLYVVSDFGILVCSGCSAVHRSFQHKVKGITMSEFTDDEIARFSVSGNDRARKVWLSTFHDQLPRSGNVMALKDHVHVVFEERRFWSAQELSA | soluble |
| MGSDKIHHHHHHMRYTLRQLEVFVAIAQHESVSLAARRLAMSQSATSTALAELERQFDCQLLDRIGKRLKLNALGFQLLPKAVALLDRGEEIEELLKGQRGIGSLDVGATLTIGNYLATLLISDFMRRHPGSRVRLHVRNTASIVDRVTHHDLDLGLIEGDCQHDDIVMQPWVEDELTVFCSPRHPLANAGEADLEALMREDWIMREEGSGTRRTLDQAMRHRRGRLNVLLELEHTEAIKRAVESGLGIGCVSHLALRDAFRRGSLVPIATPELDLTRQFTFIWHRHKYLTTAMREFLRLCREMTAGVQRSDEIDLPAVP | not soluble |
| MAHHHHHHMSGNDLLPLWIGTPQRGVTHDDTADPYTSKVGGQAVYFRLGASTAEQQSAGALSKYFQCPQCKSTAQVSLLCQVYAPLEVYDRVLYILTCAACTRRPRAAASLQGSVPAPALTTGTSKKSGLAAAARSHTSFCFALRSQNFSREHFAELQKQLRAEAQRATEDEKEKAENDAPLFGGGDDDWGDDADDWGTEEGPVKEAKPSPAEPLDDAGDKNGALEKTPNELPEFPLASRGMTVPLKGTLYTSGLPLDLYEEPPPKQTKELSIEEQLAAAKSMYGSSAALDTSGFEEDDEAPEERCVREYMEHMERTPSQCVRWCLGGTPLRTSTTPIGVNGSSLPPPCPACGAVRQFEMQLTAPVVFYLTKDIGEAKNTALHFSNVLVYTCSSNCYNTNSNLPYLPEYVVVEDEL | not soluble |
| MSNLYTELKNEWSKHAPNLTHCSRLLDGFKLELVRSNFGTIQTASSSKQKDQLIKSREMLEIAVEHSITIKDYAAFERYMAQLNTYYYDYDKYLESSKHMYKFMGLNLLYMLATNRLADFHIELERLPTALLLHDSFIQPVLALENYYMEGRYNKILQAKKSMPSEIYSNFMDILVNTAREEIASCMEKSYLKMAPKLAAQRLGLRPGSKELFELATKRQWCLDEEGNYDYAGLHTRPMEKVPAKDIATHNLTYAQELEKIVLEHHHHHH | not soluble |
| MGHHHHHHSHMTATVENLTFQKDTLGNAVDKNRRHGSTEPLVLAWSSQFRRLTWGCALDALHRSPCVAASQHGVTHLIRSSRTPHSTRCRKEDAQPGHHGNGAASVTAQARGQR | not soluble |
| MGVCFSAIRVTGASSSRRSSQTKSKAAPTPIDTKASTKRRTGSIPCGKRTDFGYSKDFHDHYTIGKLLGHGQFGYTYVAIHRPNGDRVAVKRLDKSKMVLPIAVEDVKREVQILIALSGHENVVQFHNAFEDDDYVYIVMELCEGGELLDRILSKKGNRYSEKDAAVVVRQMLKVAGECHLHGLVHRDMKPENFLFKSAQLDSPLKATDFGLSDFIKPGKRFHDIVGSAYYVAPEVLKRRSGPESDVWSIGVITYILLCGRRPFWDRTEDGIFKEVLRNKPDFSRKPWATISDSAKDFVKKLLVKDPRARLTAAQALSHAWVREGGNATDIPVDISVLNNLRQFVRYSRLKQFALRALASTLDEAEISDLRDQFDAIDVDKNGVISLEEMRQALAKDLPWKLKDSRVAEILEAIDSNTDGLVDFTEFVAAALHVHQLEEHDSEKWQLRSRAAFEKFDLDKDGYITPEELRMHTGLRGSIDPLLDEADIDRDGKISLHEFRRLLRTASISSQRAPSPAGHRNLR | soluble |
| MESVSCSAAAVRTGDMESQRDLSLVPERLQRREQERQLEVERRKQKRQNQEVEKENSHFFVATFARERAAVEELLERAESVERLEEAASRLQGLQKLINDSVFFLAAYDLRQGQEALARLQAALAERRRGLQPKKRFAFKTRGKDAASSTKVDAAPGIPPAVESIQDSPLPKKAEGDLGPSWVCGFSNLESQVLEKRASELHQRDVLLTELSNCTVRLYGNPNTLRLTKAHSCKLLCGPVSTSVFLEDCSDCVLAVACQQLRIHSTKDTRIFLQVTSRAIVEDCSGIQFAPYTWSYPEIDKDFESSGLDRSKNNWNDVDDFNWLARDMASPNWSILPEEERNIQWD | soluble |
| SRLFDEVVKKELDEAALKGVILTDGELKPEEFSMHIAEQLRAGGPFGQAFPEPIFDGEFKVLHQKLVGEKHLKLMLEPLYKGHPTNVMIDGIAFNVDLRRWPDASVKTVRLAYKLDVNEFRGNQSLQLMIDHIEAK | not soluble |
| MTLRCSDVNVEPLPGTAKTGSGFVLLEHAGSWSRDVLDGGTFDPELTDQLKRHLKASGMGLQLIRKPGREGRNVEKHNLFLVFAEASIIEHLVVDAPADVLDLDLSGPGKNNAQRMDDPMLLICTHSKRDVCCAIKGRPLAAAVEPQFGPLHVWEASHTKGHRFAPSMLLMPWNYSYGLLDEAETVQLFQGALDNKLFLPGNRGRGTLDARGQVAEIAVAEAFGEAVAPASLQVEFEDDSVLVTHPDGRTWVVELERIEVDGVVSSCGDQPKTGKAWVARQVTELIG | not soluble |
| KTAFTAEVLAQSFSGEVQKLSSLVLPAEVIIAQSSIPGEGLGIFSKTWIKAGTEMGPFTGRVIAPEHVDICKNNNLMWEVFNEDGTVRYFIDASQEDHRSWMTYIKCARNEQEQNLEVVQIGTSIFYKAIEMIPPDQELLVWYGNSHNTFLGIPGVPGLEEDQKKNKHED | soluble |
| MGSDKIHHHHHHVSPRIVIVGAGPGGMATAIRLAGQGYQVEIFEAVDRPGGRMRGFSLGDYHFDTGPTILQVPRVYDELFSSAGLRFSDYVTLIRLDPNTRIRFWDGEYLDLTSNIAAFKAQLARFDPALPAEFERWYIEHIRKNVVGYEPYLGTPVRSPLVYLKPREIAAALAFRPWESLYDHFKRFFRDERVVYALSYQAKYLGMHPTACSSVFSLVTFLEFADGIWHPRGGFRALAAGLAKAATDLGVVIHYNSPVKQVLVEEGRACGVELVGGERIKADAVVVNADFGHALTHIIPPHARGTYTDQKLNSMEFSCSTFMLYLGVNRRWDHLPHHQLYLSANIRRNDPLWAKSAVLDEDDPSFYVCNPTIVDPTNAPPGHSTLFVLVPVPNLRYPVDWAAVEQRYRDLIIRQMAKLGFEDVERHIVVERRYTAETWRDEHHTYLGAVFNLIHSWSQLGPFRPHIRHNGARNLYWIGGAVHPGSGLMTILEAAKSAVHFIGEDLPLHQTTAVAH | not soluble |
| MGHHHHHHSHIPFDYIVEKTVSTGVLVDVIGALLEVGNLTEDYRGLKLPFKIMDQYKEVLQCEAHNDQALEFQRFFQRLTGPQNVIALVSWRLSGIYKLKTLSNDPISKVIANPDIPEVEEIRVVVY | not soluble |
| MGHHHHHHSHMDEGVKEKFIGAVLGAAVGDALGKSVEDITEEEVFEFYGDRIRDFVTPHPSSPAYGQLPEETSDETTIFRLLLESLVEKKALDVRDFLNRLMEWYDREEMHRYPDPMLLTAIDLLSRGINPSTHGLTSFSVEGILRSVALGLYHYYNPELAAEGSKVVSLLTHRSDVISDASAILGALIAHLVRGDFYLEDFREKLRLIETLKDYAKEEKHKKILDRVAELLMESADLETAINTLGNGTFAFEAFPLALYIFLSNVENPEEALFQAVNSYGEFGGDTDAIGFLVGAMLGAYYGEEAIPYHLRENVENSQKLRELAERLYEVVEKQVGFSQ | soluble |
| MNNSSNADSQEGSTSAQKQKTANPSESRPFVLKKWNALAVWAWDVECDTCAICRVHLMEECLRCQSEPSAECYVVWGDCNHSFHHCCMTQWIRQNNRCPLCQKDWVVSRTSK | not soluble |
| MAKKKKEILFCDYYEDWVETYKVGAIEDVTLNKYYVAARQLRDICPKLLMSDFSRKDYQLIMNEYGKTHEKQTAKDFHHHIKAAILDAYHDGLLKSDPTYRAVIKGKEPGKKKLEHHHHHH | soluble |
| MQDLICYKKMPQWNSQTLPAAFQEKHNTQEGTWAKLTVLKGEMTFSMLTEDGDTLETFHFSEQNQPPFVEPQAWHRIVSFSDDLECQLSFFCSAEDFYHKKYGLTQTHSEVINAVQHIKPGKTLDLGCGGGRNSLYLNLRGFDVTACDKHEQSIDSLNNIIQSEALENIRAGVYNINLAEIKEQYDFILSTVVLMFLERDRIPHIISNMQGSTVDGGYNLIIAAMSTEDCPCPMPFSFTFKEDELKNYYADWEILKYNEDMGELHKTDAQGNRIKLRFATLLARKPLEHHHHHH | soluble |
| MGSDKIHHHHHHAKNVLKAWLVDNTVTTDDKTDKIFQLETTRSIDKEIILDRMVAKNPGVRRETMALGIELMEEVVAEALMNGESVNTGLFRGVAQFRGVAKQNAWDAATNSIYVSLTQGKALREAIKDTRVDVLGERPTKFYIGSGQDATTRATDFSATAGRNFTLFGKNLTVAGTDPSVGVTLASAATGTVTKIDNDMIVLNEPSRLIILLPASLEDGEYMLTVTTQYRGGGGALLKTPRSTSHTIYIGGAPETGGSTGPPGDSDGDLNENPLG | not soluble |
| MGSDKIHHHHHHMNAIAKHKENLLLDGFTIIDDIYSDEEVQQILAVIENADMSNETFRKSSDLFAIRQFLKEIPEAKELIYNKNLKKVGAELFGTDFFTVKSIYFDKPETSNWYVAYHQDLTISVDTKIDLAGFGPWTVKQNQFAVQPPLEILKNIFTIRIHLDDTNEENGALKVVPGSHAKNIYRPETIDWSVEKEISCNVKKGGIMIMKPLLLHSSGRTTNNKKRRVIHIEFSNQELPVELNWAERLN | not soluble |
| MKFTIVIPIFNRVQYIPETLDSVIRQTYTDLEIICVDDCSSDRSPVLLQDYAKTDLRIKVLTHAKNKGLYLARKTGVLNASGDYILFLDCDDVLDLHAVEVIYNALCKNSVEVLEYGYHSIHANENTVPDSAITVDKLFSSLVYDRYPRAGTVWNKAYKTELLKNAFSKMSDFHAVMGEDFYESVIIAYYAKSYSSIDDVLVIYNDESGISNTRKNLASIQKDLDSVVAILNGFRFFFESYASEHKEAVLNIESYYIRYVYYNLILLKTNKTDRKMAVDLLKDYFSAEAAAPYFNKTKPAVTRDAVMYKIRAVIKRYISKKLREMIKKIIRRYDKKPQQK | not soluble |
| MSLELYAASYILPIASPPIPGGAVAVHDGCIVETGTLAELRSRHSGPVHDFPGCAILPGLVNAHTHLELTHFPSWKIRKGIDYSPRTYVDWIIQVIKIRRALSPQELELSVREGLRICLEAGTTAIGEILTDRSLIPLYADSGLRGRLLFEAIGHDPVRNAQLVEELDAAIASFSGGSFLPGISPHAPHTVAEHLHQDVYRLAYERNVPRVIHLAESREESDFFFDSSGKIAEFLYPHVRWESYLPAPRRTTATAWLDGLGVLNGTISAVHCVHLTPSDAEILAKRGVGVVLCPRSNDKLAVGRAPVVLLKRLGVPLALGTDSLASNDSLSLWDEMRYLLDTFPGIFTPTEALSMTTIGSARQLALADRTGSLDKGKHADFLVMKLPGRNGSGEALHEALIHSGEILQVFLAGNLVVSREAFSEGHHHHHH | soluble |
